According to paper PMC5382266 (Nature Communications, 2017):
Changes are numbered by the printed parent chain.

T1: full-length HA-tagged human IL-7Rα (human, UniProt P16871-1 21-459)
T1 sequence (looked up): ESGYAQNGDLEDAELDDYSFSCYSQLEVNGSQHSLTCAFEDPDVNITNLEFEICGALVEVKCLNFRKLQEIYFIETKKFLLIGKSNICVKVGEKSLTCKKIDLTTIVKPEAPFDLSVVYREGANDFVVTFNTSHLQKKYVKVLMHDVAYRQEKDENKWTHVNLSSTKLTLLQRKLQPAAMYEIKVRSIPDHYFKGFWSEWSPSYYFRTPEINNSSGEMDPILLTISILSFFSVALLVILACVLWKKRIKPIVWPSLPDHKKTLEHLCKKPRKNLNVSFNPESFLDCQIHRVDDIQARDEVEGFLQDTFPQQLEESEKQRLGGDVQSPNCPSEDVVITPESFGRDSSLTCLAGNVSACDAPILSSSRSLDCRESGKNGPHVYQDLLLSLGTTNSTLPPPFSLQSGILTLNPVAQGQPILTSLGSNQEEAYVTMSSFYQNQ

T2: TSLPR^N47Q (human, UniProt Q9HC73-1 23-221, N47Q)
T2 construct: signal peptide in the construct; extracellular fragment of human TSLPR, NP_071431.2, residues 1-221, N-glycosylation mutant N47Q; also called EndoH-treated TSLPR^N47Q
T2 sequence (looked up): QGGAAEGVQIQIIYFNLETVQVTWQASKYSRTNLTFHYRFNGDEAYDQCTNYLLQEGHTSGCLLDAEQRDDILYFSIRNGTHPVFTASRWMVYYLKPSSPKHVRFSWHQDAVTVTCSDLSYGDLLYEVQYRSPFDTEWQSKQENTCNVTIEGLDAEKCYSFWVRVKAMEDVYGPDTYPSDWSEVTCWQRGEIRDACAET

B1: soluble TSLPR ectodomain (domain or fragment, human, UniProt Q9HC73-1 23-221, looked up)
chain: T2 sequence (looked up) with Q25N
B2: TSLP-Arg149Ser (ligand, human, UniProt Q969D9-1 29-159, looked up)
chain: YDFTNCDFEKIKAAYLSTISKDLITYMSGTKSTEFNNTVSCSNRPHCLTEIQSLTFNPTAGCASLAKEMFAMKTKAALAIWCPGYSETQINATQAMKKARKSKVTTNKCLEQVSQLQGLWSRFNRPLLKQQ
B3: TSLP-Arg149Ser/Arg150Ser (ligand, human, UniProt Q969D9-1 29-159, looked up)
chain: B2 chain with R122S
B4: TSLP-Arg150Ser (ligand, human, UniProt Q969D9-1 29-159, looked up)
chain: B2 chain with S121R, R122S
B5: TSLP-Arg153Ser (ligand, human, UniProt Q969D9-1 29-159, looked up)
chain: B2 chain with S121R, R125S
B6: TSLPR-Asp157Ala/Glu159Ala (receptor)
chain: QGGAAEGVQIQIIYFNLETVQVTWNASKYSRTNLTFHYRFNGDEAYDQCTNYLLQEGHTSGCLLDAEQRDDILYFSIRNGTHPVFTASRWMVYYLKPSSPKHVRFSWHQDAVTVTCSDLSYGDLLYEVQYRSPFATAWQSKQENTCNVTIEGLDAEKCYSFWVRVKAMEDVYGPDTYPSDWSEVTCWQRGEIRDACAETPTPPKPKLSKFILISSLAILLMVSLLLLSLWKLWRVKKFLIPSVPDPKSIFPGLFEIHQGNFQEWITDTQNVAHLHKMAGAEQESGPEEPLVVQLAKTEAESPRMLDPQTEEKEASGGSLQLPHQPLQGGDVVTIGGFTFVMNDRSYVAL
B7: TSLPR-Phe156Ala/Asp157Ala/Glu159Ala (receptor)
chain: B6 chain with F134A
B8: full-length FLAG-tagged human TSLPR (receptor, UniProt Q9HC73-1 23-371, looked up)
chain: B6 chain with A135D, A137E
B9: TSLPR-Asp176Ala/Glu178Ala/Lys179Ala (receptor)
chain: B6 chain with A135D, A137E, D154A, E156A, K157A
B10: TSLP^Δ127–131 (ligand, human, UniProt Q969D9-1 29-159, looked up)
chain: YDFTNCDFEKIKAAYLSTISKDLITYMSGTKSTEFNNTVSCSNRPHCLTEIQSLTFNPTAGCASLAKEMFAMKTKAALAIWCPGYSETQINATQAMKKVTTNKCLEQVSQLQGLWRRFNRPLLKQQ
notes: His tag removed with thrombin; also called non-glycosylated human TSLP lacking a basic cassette; not shown: His6, N-terminal, cleaved
B11: TSLP-trap1 (other, human)
chain: QGGAAEGVQIQIIYFNLETVQVTWNASKYSRTNLTFHYRFNGDEAYDQCTNYLLQEGHTSGCLLDAEQRDDILYFSIRNGTHPVFTASRWMVYYLKPSSPKHVRFSWHQDAVTVTCSDLSYGDLLYEVQYRSPFDTEWQSKQENTCNVTIEGLDAEKCYSFWVRVKAMEDVYGPDTYPSDWSEVTCWQRGEIRDACAETPTPPKPKLSKGGSGGSGGSGGSGGSGGSGGSGGSGGSGGSGGSGGSGGSGGSGGSGGSGGSGGSGGSGGSESGYAQNGDLEDAELDDYSFSCYSQLEVNGSQHSLTCAFEDPDVNITNLEFEICGALVEVKCLNFRKLQEIYFIETKKFLLIGKSNICVKVGEKSLTCKKIDLTTIVKPEAPFDLSVVYREGANDFVVTFNTSHLQKKYVKVLMHDVAYRQEKDENKWTHVNLSSTKLTLLQRKLQPAAMYEIKVRSIPDHYFKGFWSEWSPSYYFRTPEINNSSGEMD
notes: signal peptide in the construct; extracellular domain of human TSLPR, NP_071431.2, residues 1-231 (native secretion signal of TSLPR used); flexible (Gly-Gly-Ser)20 linker, written out from the printed formula; extracellular part of human IL-7Rα, NP_002176.2, residues 21-239; also called Human TSLP-trap1; hTSLPtrap1
B12: refolded IL-7Rα ectodomain (domain or fragment, human, UniProt P16871-1 21-239, looked up)
chain: ESGYAQNGDLEDAELDDYSFSCYSQLEVNGSQHSLTCAFEDPDVNITNLEFEICGALVEVKCLNFRKLQEIYFIETKKFLLIGKSNICVKVGEKSLTCKKIDLTTIVKPEAPFDLSVVYREGANDFVVTFNTSHLQKKYVKVLMHDVAYRQEKDENKWTHVNLSSTKLTLLQRKLQPAAMYEIKVRSIPDHYFKGFWSEWSPSYYFRTPEINNSSGEMD
notes: extracellular fragment of human IL-7Rα, NP_002176.2, residues 21-239; His tag removed with thrombin; also called IL-7Rα ectodomain (E. coli); not shown: His6, N-terminal, cleaved
B13: soluble IL-7Rα ectodomain (domain or fragment, human, UniProt P16871-1 21-239, looked up)
chain: B12 chain
notes: signal peptide in the construct; extracellular fragment of human IL-7Rα, NP_002176.2, residues 1-239; also called interleukin 7 receptor α-chain
B14: TSLP-trap2 (other, human)
chain: ESGYAQNGDLEDAELDDYSFSCYSQLEVNGSQHSLTCAFEDPDVNITNLEFEICGALVEVKCLNFRKLQEIYFIETKKFLLIGKSNICVKVGEKSLTCKKIDLTTIVKPEAPFDLSVVYREGANDFVVTFNTSHLQKKYVKVLMHDVAYRQEKDENKWTHVNLSSTKLTLLQRKLQPAAMYEIKVRSIPDHYFKGFWSEWSPSYYFRTPEINNSSGEMDGGSGGSGGSGGSGGSGGSGGSGGSGGSGGSGGSGGSGGSGGSGGSGGSGGSGGSGGSGGSQGGAAEGVQIQIIYFNLETVQVTWNASKYSRTNLTFHYRFNGDEAYDQCTNYLLQEGHTSGCLLDAEQRDDILYFSIRNGTHPVFTASRWMVYYLKPSSPKHVRFSWHQDAVTVTCSDLSYGDLLYEVQYRSPFDTEWQSKQENTCNVTIEGLDAEKCYSFWVRVKAMEDVYGPDTYPSDWSEVTCWQRGEIRDACAETPTPPKPKLSK

Tests used:
[1] = target: wild type TSLP (TSLP^R127A/R130S) (human, UniProt Q969D9-1 29-159, R127A | R130S); assay: cell-based or functional assay
[2] = target: B8; assay: cell-based or functional assay
[3] = target: T1, full-length HA-tagged human IL-7Rα
[4] = target: T1, full-length HA-tagged human IL-7Rα; assay: cell-based or functional assay
[5] = target: T2, TSLPR^N47Q; assay: SEC-MALS; Superdex 200 Increase 10/300 GL, HBS pH 7.4, 0.5 ml/min, 25 °C; glycan-minimized ternary complex; conditions: both partners purified
[6] = target: T3, biotinylated TSLP^R127A/R130S (human, UniProt Q969D9-1 29-159, R127A | R130S, biotin, C-terminal (in vivo biotinylation)); assay: BLI; biotinylated TSLP^R127A/R130S on streptavidin biosensors, analyte in solution; PBS with 0.01% BSA and 0.002% Tween 20, 25 °C, Octet RED96; 1:1 model; conditions: both partners purified
T3 construct: signal peptide in the construct; glycosylated, mammalian-derived; also called thymic stromal lymphopoietin; source: HEK293T, co-transfected with pDisplay-BirA-ER, purified from conditioned medium (IMAC, SEC); not shown: Avi tag (from the vector pHL-AVITAG), C-terminal, kept

[7] = target: T4, binary TSLP^Δ127–131:TSLPR^N47Q complex (human, UniProt Q969D9-1 29-159; Q9HC73-1 23-221, Δ127–131 | N47Q); assay: SEC-MALS; Superdex 200 Increase 10/300 GL, HBS pH 7.4, 0.5 ml/min, 25 °C; glycan-minimized ternary complex; conditions: both partners purified
T4 construct: as the chain of m8; signal peptide in the construct; extracellular fragment of human TSLPR, NP_071431.2, residues 1-221, N47Q; as the chain of m9; also called TSLP:TSLPR^N47Q complex; not shown: His6, N-terminal, cleaved; copies: 1 + 1

[8] = target: T5, preformed TSLP:TSLPR binary complex (human, UniProt Q969D9-1 29-159; Q9HC73-1 23-221, R127A | R130S, biotin, C-terminal (in vivo biotinylation)); assay: BLI; TSLP-loaded biosensors incubated with 320 nM TSLPR, which was also in the assay buffer and all IL-7Rα samples; PBS with 0.01% BSA and 0.002% Tween 20, 25 °C; 1:1 model; conditions: both partners purified
T5 construct: signal peptide in the construct; as the chain of m1; extracellular fragment of human TSLPR, NP_071431.2, residues 1-221; as the chain of m2; 320 nM TSLPR was kept in the kinetics buffer and in all IL-7Rα samples; also called TSLP:TSLPR complex; not shown: Avi tag (from the vector pHL-AVITAG), C-terminal, kept

Binder: B1
IC50 of inhibition of STAT5 activity induced by 10 pM TSLP by an equimolar mixture of the soluble TSLPR and IL-7Rα ectodomains [1]: 49 nM

Binder: B2
EC50 of STAT5 activity (luciferase reporter) induced by TSLP in HEK293T cells expressing WT TSLPR and IL-7Rα [2]: 0.0028 nM

Binder: B3
EC50 of STAT5 activity (luciferase reporter) induced by TSLP in HEK293T cells expressing WT TSLPR and IL-7Rα [2]: 0.1 nM

Binder: B4
EC50 of STAT5 activity (luciferase reporter) induced by TSLP in HEK293T cells expressing WT TSLPR and IL-7Rα [2]: 0.0095 nM

Binder: B5
EC50 of STAT5 activity (luciferase reporter) induced by TSLP in HEK293T cells expressing WT TSLPR and IL-7Rα [2]: 0.019 nM

Binder: B6
EC50 of TSLP-induced STAT5 activity in cells expressing mutant TSLPR and IL-7Rα [3]: 0.085 nM

Binder: B7
EC50 of TSLP-induced STAT5 activity in cells expressing mutant TSLPR and IL-7Rα [3]: 0.4 nM

Binder: B8
EC50 of TSLP-induced STAT5 activity in cells expressing WT TSLPR and IL-7Rα (control of the site III mutants) [4]: 0.011 nM

Binder: B9
EC50 of TSLP-induced STAT5 activity in cells expressing mutant TSLPR and IL-7Rα [3]: 0.049 nM

Binder: B10
stoichiometry N [5]: 1

Binder: B11
IC50 of inhibition of STAT5 activity induced by 10 pM TSLP in HEK293T cells expressing TSLPR and IL-7Rα [1]: 67 pM | Kd [6]: 0.12 nM | koff [6]: 2e-05 s⁻¹

Binder: B12
stoichiometry N [7]: 1

Binder: B13
Kd [8]: 29 nM | koff [8]: 0.0036 s⁻¹ | kon [8]: 123000 M⁻¹ s⁻¹

Binder: B14
IC50 of inhibition of STAT5 activity induced by 10 pM TSLP in HEK293T cells expressing TSLPR and IL-7Rα [1]: 44 pM
